According to patent US20180360946A1 (ALBERT EINSTEIN COLLEGE OF MEDICINE, published 2018):

How the values were obtained:
[1] = target: murine mAb 4E11; assay: ELISA
[2] = target: T1, mAb 2H12; assay: ELISA
T1 construct: also called prototypic AB-loop mAb 2H12

[3] = target: T2, mAb 3H5-1; assay: ELISA
T2 construct: also called prototypic FG-loop mAb 3H5-1

[4] = target: murine mAb 4E11; assay: biolayer interferometry
[5] = target: T1, mAb 2H12; assay: biolayer interferometry
[6] = target: murine mAb 4E11; assay: ELISA, purified DIII
[7] = target: T1, mAb 2H12; assay: ELISA, purified DIII
[8] = target: murine mAb 4E11; assay: phage ELISA, phage-displayed DIII titrated on immobilized 4E11; set-up: unit not given here

B1: WT DENV2 EDIII (other)
chain: GMSYSMCTGKFKIVKEIAETQHGTIVIRVQYEGDGSPCKIPFEIMDLEKRHVLGRLITVNPIVTEKDSPVNIEAEPPFGDSYIIIGVEPGQLKLNWFKKGSSIGQ
notes: also called WT DENV2 DIII; DENV2 EDIII WT
- EC50 [1]: 0.002 µM
- EC50 [2]: 0.0003 µM
- EC50 [3]: ~2000 µM
- Kd [4]: ~4 pM
- Kd [5]: 0.03 nM
- EC50 [6]: 0.0024 µM
- EC50 [7]: 0.00032 µM
- EC50 (read off the curve) [8]: ~5e+08
